For data set [1], the system named is N[C@@H](CCC(=O)O)C(=O)O. Put plainly: Aminoacylation of 32P-tRNA with α- and β3-amino acids. To be noted: other: aminoacylation, GluRS. The data set is classed as biochemical, E. coli.
The test system of data set [2] is N[C@@H](CCC(=O)O)C(=O)O. Put plainly: purified protein, by the assay type. To be noted: other: adenylation, GluRS; pH 7.0; 25.0 °C.
Description: Adenylation of α- and β-Amino Acids Catalyzed by E. coli PheRS, GlyRS, MetRS, and GluRS. […] Briefly, assay mixtures (50 μL) assembled at 25° C. contained the requisite α- or β^3-amino acid substrate (between 5 μM and 5 mM) in 100 mM HEPES (pH 7.0) containing 100 mM KCl, 15 mM MgCl2, 2 mM ATP, 0.5 mM NaPPi, and 50 μCi [^32P]-NaPPi). Reactions were initiated upon addition of enzyme (10 nM MetRS, 10 nM PheRS, or 50 nM GlyRS; 100 nM GluRS for reactions with α-Glu or 1.13 μM GluRS for reactions with β^3-Glu), incubated for various times (10 sec to 10 min), and halted by adding a 5 μL reaction aliquot to 100 μL quenching solution (10% charcoal, 0.5% HCl). 50 μL of 200 mM NaPPi in 1.5 N HCl was then added to each quenched reaction to decrease nonspecific binding of pyrophosphate to the charcoal. Each quenched reaction was then filtered through Whatman filter paper (number 3), previously washed with washing solution (200 mM NaPPi in 1 N HCl) using a 96-well BIO-DOT® apparatus (BioRad). Each well of the apparatus was then washed four times with 200 μL aliquots of washing solution (by pipetting washing solution up and down at least 10 times per wash) to minimize nonspecific binding of pyrophosphate to charcoal. Each experimental well was paired with an analogous control well (no-enzyme control) that lacked enzyme; a single membrane contained time points for both α- and β^3-amino acid substrates and all no-enzyme controls. The membrane was allowed to dry and was protected with a sheet of Microseal B adhesive seals (Biorad) prior to exposure to a BAS Storage Phosphor screen. Screens were imaged on a Typhoon 9500FLA biomolecule imager and the signal intensity of each dot was quantified using ImageJ to determine the relative amount of [^32P]-ATP formed as a function of time (Ctime). Each raw value were corrected by subtracting the intensity of the dot corresponding to the appropriate no-enzyme control (Cblank) and the resulting corrected values of Ccorr (representing the relative amounts of ^32P-ATP formed) were plotted as a function of time to determine values of relative ^32P-ATP formed per minute. Those values were divided by the concentration of enzyme used, and the data was plotted as relative specific activity (^32P-ATP formed min^−1×μM^−1 enzyme) and fitted using Prism by performing nonlinear regression using the least squares method and Equation 1 to obtain RSA (relative specific activity) and KM values (Equation 1 and Table 2).
In Equation 1, v is the apparent relative specific activity (relative ^32P-ATP formed per minute) obtained at each substrate concentration divided by the enzyme concentration, RSA is the relative specific activity, S is the concentration of substrate, and KM is the Michaelis-Menten constant.

Our source for the Km, kcat and kcat/Km values is patent US11203773B2, “Designer ribosomes and methods of use thereof for incorporating non-standard amino acids into polypeptides” (Yale University, priority 2016, dated 2021).

As to E. coli GluRS (Escherichia coli K-12), in the data set with N[C@@H](CCC(=O)O)C(=O)O [1], the Km is 277.1 ± 101.5 µM, the turnover number (kcat) worked out at 0.000767 ± 6.67e-05 s⁻¹ and the specificity constant (kcat/Km) is 2.67 ± 1 M⁻¹ s⁻¹. Moreover, in the data set on N[C@@H](CCC(=O)O)C(=O)O [2], the Km worked out at 76.4 ± 43.0 µM, the kcat was 22.5 ± 3.43 s⁻¹ and the kcat/Km is 293000 ± 172000 M⁻¹ s⁻¹.
